Measured values reported in US20230272028.

Columns and labels:
[1] = target: T1, CTSL1_2 8-mer FRET substrate Mca-ALFFSSPPK-Dnp
T1 chain: ALFFSSPPK

[2] = target: T2, CTSL1_1 FRET substrate (ALFKSSFP)
T2 chain: ALFKSSFP

B1: Cathepsin K (CTSK) (protein)
chain: APDSVDYRKKGYVTPVKNQGQCGSCWAFSSVGALEGQLKKKTGKLLNLSPQNLVDCVSENDGCGGGYMTNAFQYVQKNRGIDSEDAYPYVGQEESCMYNPTGKAAKCRGYREIPEGNEKALKRAVARVGPVSVAIDASLTSFQFYSKGVYYDESCNSDNLNHAVLAVGYGIQKGNKHWIIKNSWGENWGNKGYILMARNKNNACGIANLASFPKM
- FRET substrate cleavage, specific activity [1]: measurably cleaved by CTSK but at a 15× lower level than the CTSL1_1 substrate
- FRET substrate cleavage, specific activity [2]: measurably cleaved by CTSK but at a 15× lower level than the CTSL1_1 substrate
